How the values were obtained:
SEC-MALS = target: the molecule itself; assay: SEC-MALS
Rac1Q61L, recombinant = Rac1Q61L, recombinant (human, UniProt P63000 1-192, Q61L); assay: ITC
SAXS = target: the molecule itself; assay: SAXS
[1] = target: Rab35BD (MiniBAR225-553), recombinant (human, UniProt O15063 225-553); assay: ITC

B1: Rac1BD (MiniBAR70-208), recombinant (domain or fragment)
chain: not shown
SEC-MALS
  stoichiometry N: 2

B2: Rac1BD-Rab35BD (MiniBAR70-553), recombinant (domain or fragment)
chain: not shown
Rac1Q61L, recombinant
  Kd: ~0.2 µM
SAXS
  stoichiometry N: 2

B3: Rab35-GPPNHP, recombinant (natural protein)
chain: not shown
[1]
  Kd: ~2 µM
